Settings: Saccharomyces cerevisiae (strain ATCC 204508 / S288c), pH 7, 30 °C, Urea, Fluorescence, Potassium phosphate 50 mM

Sequence of Cytochrome c isoform 1 D96C|C108T, P00044 D96C C108T (P00044 whole entry D96C/C108T, canonical isoform): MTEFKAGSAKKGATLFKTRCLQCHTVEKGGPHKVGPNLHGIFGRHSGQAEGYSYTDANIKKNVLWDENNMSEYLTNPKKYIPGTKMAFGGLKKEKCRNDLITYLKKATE
Sequence of Cytochrome c isoform 1 wild type, P00044 (P00044 whole entry, canonical isoform): as the sequence (P00044 whole entry D96C/C108T, canonical isoform) above, with C96D, T108C counted along it
Sequence of Cytochrome c isoform 1 C108T, P00044 (P00044 whole entry C108T, canonical isoform): as the sequence (P00044 whole entry D96C/C108T, canonical isoform) above, with C96D counted along it
Sequence of Cytochrome c isoform 1 R19C|C108T, P00044 R19C C108T (P00044 whole entry R19C/C108T, canonical isoform): as the sequence (P00044 whole entry D96C/C108T, canonical isoform) above, with R19C, C96D counted along it

Cytochrome c isoform 1 C108T, P00044
ddG of mutation (higher = less stable) (structure 1YCC): -4.09 kcal/mol
denaturant m value (structure 1YCC): 1.79 kcal/mol/M
denaturant midpoint (higher = more stable) (structure 1YCC): 3.6 M
unfolding free energy (structure 1YCC): 6.48 kcal/mol

Cytochrome c isoform 1 D96C|C108T, P00044 D96C C108T
ddG of mutation (higher = less stable) (structure 1YCC): -0.91 kcal/mol
denaturant m value (structure 1YCC): 1.2 kcal/mol/M
denaturant midpoint (higher = more stable) (structure 1YCC): 2.8 M
unfolding free energy (structure 1YCC): 3.3 kcal/mol

Cytochrome c isoform 1 R19C|C108T, P00044 R19C C108T
ddG of mutation (higher = less stable) (structure 1YCC): -4.21 kcal/mol
denaturant m value (structure 1YCC): 1.79 kcal/mol/M
denaturant midpoint (higher = more stable) (structure 1YCC): 3.7 M
unfolding free energy (structure 1YCC): 6.6 kcal/mol

Cytochrome c isoform 1 wild type, P00044
denaturant m value: 0.91 kcal/mol/M
denaturant midpoint (higher = more stable): 2.6 M
unfolding free energy: 2.39 kcal/mol
